# Assay results from US20220241369A1, “COMPOSITIONS AND METHODS OF MODULATING INFLAMMATION” (La Jolla Institute for Allergy and Immunology, priority 2018, published 2022).
# B1: OVA: food allergen of the murine model, also given orally as OIT (protein, UniProt P01012 2-386, looked up)
# Ovalbumin: GSIGAASMEFCFDVFKELKVHHANENIFYCPIAIMSALAMVYLGAKDSTRTQINKVVRFDKLPGFGDSIEAQCGTSVNVHSSLRDILNQITKPNDVYSFSLASRLYAEERYPILPEYLQCVKELYRGGLEPINFQTAADQARELINSWVESQTNGIIRNVLQPSSVDSQTAMVLVNAIVFKGLWEKAFKDEDTQAMPFRVTEQESKPVQMMYQIGLFRVASMASEKMKILELPFASGTMSMLVLLPDEVSGLEQLESIINFEKLTEWTSSNVMEERKIKVYLPRMKMEEKYNLTSVLMAMGITDVFSSSANLSGISSAESLKISQAVHAAHAEINEAGREVVGSAEAGVDAASVSEEFRADHPFLFCIKHIATNAVLFFGRCVSP
# B2: HRF dimer: recombinant disulfide-linked dimer of mouse histamine releasing factor (protein, UniProt P63028 1-172, looked up)
# Translationally-controlled …: MIIYRDLISHDELFSDIYKIREIADGLCLEVEGKMVSRTEGAIDDSLIGGNASAEGPEGEGTESTVVTGVDIVMNHHLQETSFTKEAYKKYIKDYMKSLKGKLEEQKPERVKPFMTGAAEQIKHILANFNNYQFFIGENMNPDGMVALLDYREDGVTPFMIFFKDGLEMEKC
# modifications: disulfide-linked dimer
# notes: recombinant disulfide-linked dimer of mouse histamine releasing factor
# B3: hHRF dimer: human HRF dimer (protein)
# chain: MIIYRDLISHDEMFSDIYKIREIADGLCLEVEGKMVSRTEGNIDDSLIGGNASAEGPEGEGTESTVITGVDIVMNHHLQETSFTKEAYKKYIKDYMKSIKGKLEEQRPERVKPFMTGAAEQIKHILANFKNYQFFIGENMNPDGMVALLDYREDGVTPYMIFFKDGLEMEKC
# Legend:
# [1] = tested on: Raw264.7 murine macrophages; test: HRF secretion into culture supernatant, western blot, macrophages; format: cell-based, mouse; details: stimulated overnight, 20 or 100 ng/ml
# Experimental: (§1) FIGS. 4A-4C show HRF is secreted by various cells. CMT-93 murine intestinal epithelial cells (FIG. 4A) and NIH/3T3 murine fibroblasts (FIG. 4B) and Raw264.7 murine macrophages (FIG. 4C) were stimulated overnight with low (20 ng/ml) and high (100 ng/mL) concentrations of various cytokines. HRF secreted into culture supernatants was detected by western blotting. Med and US denote medium only and supernatant from unstimulated cells, respectively. −DTT and +DTT indicate SDS gels were run under non-reducing and reducing conditions, respectively. Gel portions of containing the 23 kDa HRF monomer are shown except that a larger portion of the non-reducing gel is shown in panel C. Arrow indicates the position of HRF dimer, which disappeared under reducing conditions.
# (§2) The following cell lines were cultured in DMEM plus 10% FCS except for U-937 cells which were cultured in RPMI1640 plus 10% FCS: CMT-93 mouse and Caco-2 (with 20% FCS) human intestinal epithelial cell lines; NIH/3T3 mouse fibroblast line; Raw 264.7 mouse and U-937 human macrophage lines; BEAS-2B human bronchial epithelial cell line; 293T human embryonic kidney cell line (obtained from ATCC, Manassas, Va., except for NIH/3T3, which was provided by S. A. Aaronson, NIH). Fibroblast-like stromal cells were cultured from small intestines of BALB/c mice in DMEM/10% FBS. CD4^+ T and B cells were purified from mouse spleens using BD IMag™ Mouse CD4 and B cells enrichment set-DM. Low-density bone-marrow cells were cultured in the presence of 100 ng/ml of stem cell factor (PeproTech) and 100 ng/ml of FLT-3 ligand (R&D Systems) for 4 days, and with 10 ng/mL of IL-5 (R&D Systems) thereafter for 10 days to obtain bone marrow-derived eosinophils (44). Bone marrow cells were cultured in the presence of 20 ng/ml of GM-CSF for 6 days and adherent cells were collected as bone marrow-derived macrophages. Non-adherent cells were further cultured with 5 ng/ml GM-CSF and the non-adherent cells were collected as bone marrow-derived dendritic cells. […]
# [2] = tested on: CMT-93 murine intestinal epithelial cells; test: HRF secretion into culture supernatant, western blot, CMT-93; format: cell-based, mouse; details: stimulated overnight, 20 or 100 ng/ml
# Experimental: as §1, §2
# [3] = tested on: NIH/3T3 murine fibroblasts and primary intestinal fibroblasts; test: HRF secretion into culture supernatant, western blot, fibroblasts; format: cell-based, mouse; details: stimulated overnight, 20 or 100 ng/ml
# Experimental: as §1
# The following cell lines were cultured in DMEM plus 10% FCS except for U-937 cells which were cultured in RPMI1640 plus 10% FCS: CMT-93 mouse and Caco-2 (with 20% FCS) human intestinal epithelial cell lines; NIH/3T3 mouse fibroblast line; Raw 264.7 mouse and U-937 human macrophage lines; BEAS-2B human bronchial epithelial cell line; 293T human embryonic kidney cell line (obtained from ATCC, Manassas, Va., except for NIH/3T3, which was provided by S. A. Aaronson, NIH). Fibroblast-like stromal cells were cultured from small intestines of BALB/c mice in DMEM/10% FBS. […]
# [4] = tested on: BEAS-2B human bronchial epithelial cells; test: HRF secretion, western blot, BEAS-2B; format: cell-based; details: combination of HDM and cytokine, 24 h
# Description: As lung epithelial cells are exposed to the environment, HRF secretion was studied using BEAS-2B human bronchial epithelial cells. A small amount of HRF was secreted constitutively, but house dust mite allergens induced the secretion of high-molecular-weight HRF species (HMW-HRFs). Various cytokines including epithelial derived cytokines as well as Th2 cytokines and proinflammatory cytokines further enhanced HDM-induced secretion of HMW-HRFs.
# Cultured cells were scraped and treated with adenosine and ATP, which should be abundantly present in inflammatory or injured tissues. These conditions induced secretion of HRF monomer, dimer and HMW-HRFs like stimulation with HDM plus cytokines.
# Culture supernatants were analyzed by SDS-PAGE under nonreducing (−DTT) and reducing (+DTT) conditions, followed by western blotting for HRF probing. HDM-induced HRF secretion was enhanced not only by Th2 cytokines (IL-4, IL-5, and IL-13), but also by epithelial derived cytokines (IL-25, IL-33, and TSLP) and proinflammatory cytokines (IL-1beta, IL-6 and TNF). med, medium alone; US, unstimulated; HDM, house dust mite; CR, cockroach; RW, ragweed; Af, Aspergillus fumigatus. Arrowhead, HRF monomer.
# [5] = tested on: OVA-induced allergic diarrhea; test: OIT desensitization model, hourly increasing amounts of OVA for 3 days; format: in vivo, mouse
# Experimental: (§3) In a classical tolerance model, five daily oral administrations of 1 mg OVA from day −11 to day −7 were performed before i.p. OVA/alum-sensitization on days 0 and 7 and followed by ig. OVA (30 mg) gavages on days 14, 21, 28 and 35. In another OIT model, mice were i.d. sensitized with OVA (750 μg) on days 0, 13 and 27 and followed by 9 oral OVA (60 mg) challenges from day 44 to day 60 to induce diarrhea in all mice. Then mice were i.g. treated with hourly increasing amounts of OVA on day 100 (0.1, 0.2, 0.5 mg), on day 101 (1, 2, 5 mg) and on day 102 (10, 20, 60 mg).
# Finally, HRF-reactive IgE and HRF-reactive IgG were monitored in another desensitization model, which mimicked the human OIT more faithfully. OVA-sensitized mice were first rendered allergic by OVA challenges and then received hourly increasing amounts of OVA for 3 consecutive days (OIT) after a resting period (FIG. 7D). […] Levels of HRF-reactive IgG and OVA-specific IgG were not changed by OIT (FIG. 7E). In non-sensitized mice, HRF-reactive IgE and HRF-reactive IgG levels were not changed by OIT and OVA-specific IgE and IgG levels were extremely low irrespective of OIT treatment (data not shown).
# [6] = tested on: c-Kit+ mucosal mast cells of the small intestine; test: Ex vivo mast cell activation test (MCAT); format: cell-based, mouse; details: 15 min at 37° C.
# Experimental: FIGS. 2A-2C show mucosal mast cells can be activated ex vivo by antigen. Cells were released with EDTA from small intestines of non-sensitized/OVA challenged (Cont) or OVA-sensitized/OVA-challenged (OVA) mice, and mononuclear cells were selected. The cells were incubated for 15 min at 37° C. with OVA or anti-IgE antibody, and activation of Kit^+ mast cells was measured by flow cytometry (FIG. 2A, FIG. 2B). **, ***: p<0.01, p<0.001 by Student's t-test. (n=2; a representative of 2 independent experiments) (FIG. 2C) Mucosal cells derived from OVA-sensitized/OVA-challenged mice were stimulated with PBS (n=4), OVA (10 ng/ml, n=4) or HRF dimer (100 μg/ml, n=2) in the presence or absence of HRF-2CA (300 μg/ml).
# FIGS. 11A-11C show HRF dimer, but not monomer can activate mast cells. (FIG. 11A) Purified dimeric and monomeric HRF expressed in E. coli. Recombinant HRF-[…] was purified first by Histrap HP and then Sephacryl S-200 HR16/60. Two peaks were observed by Sephacryl size fractionation. The first (Fr1) and second (Fr3) peaks contained dimer and monomer, respectively, as shown by SDS-PAGE. Fr1 and Fr3 were used for mast cell stimulation. (FIG. 11B) Cells were released with 10 mM EDTA from small intestines of OVA-sensitized/OVA-challenged mice, and mononuclear cells were selected. The cells were incubated for 15 min at 37° C. with mHRF monomer or dimer (100 μg/ml), or PBS, and Kit^+ mast cell activation (LAMP-1^+) was measured by flow cytometry (n=3). (FIG. 11C) Control experiments indicate an excellent specificity of the assay for HRF multimers. HRF-2CA (2CA) was used as a monomer control (n=2 for each concentration). Note that total concentrations of the 1:9 mixture of dimer:monomer gave almost the same luminescence values as did ten-fold less concentrations of dimer.
# Twenty-four hours after the last OVA challenge, mice were sacrificed and small intestines (0.5-15 cm from stomach) were collected. The intestinal tissues were opened longitudinally and washed with PBS. Then, the tissues were incubated with 10 mM EDTA-PBS for 30 min at 37° C. After incubation, the tissues were transferred to 30 ml PBS in 50 ml tubes and vigorously shaken. After washed, the cells were resuspended in 40% Percoll solution and slowly loaded on the top of 75% Percoll solution. The cells were then centrifuged (2000 rpm, 20 min) and lymphocytes were collected. The cells were once centrifuged and resuspended in Tyrode's buffer. Abs (Biotin-anti-CD4 mAb (clone RM4-5), Biotin-anti-CD8 mAb (clone 53-6.7), Biotin-anti-B220 mAb (clone RA3-6B2), Biotin-anti-CD326 mAb (clone G8.8), PE-anti-CD117 (clone 2B8), AlexaFluor647-anti-LAMP-1 mAb (clone 1D4B)) (Biolegend) were added and cells were then stimulated with OVA, anti-IgE (clone RME-1, BioLegend) and recombinant dimeric murine HRF for 15 min at 37° C. After activation, cells were washed and incubated with FITC-streptavidin (Catalog #405202, Biolegend) for 30 min at 4° C. LAMP-1 expression was detected using FACS Calibur. Data were analyzed using FlowJo software.
# [7] = tested on: OVA-induced allergic diarrhea; test: Classical tolerance model, oral OVA before sensitization; format: in vivo, mouse
# Experimental: as §3
# Applicant then tested the possibility provoked by the above human data that the level of HRF-reactive IgE is kept low in a desensitized state, using two murine models. In a classic tolerance model (30), five daily oral administrations of 1 mg OVA from day −11 to day −7 (OIT) prevented the OVA-induced development of allergic diarrhea in OVA-sensitized mice (FIG. 7B). By contrast, without oral pretreatment, all OVA-sensitized mice developed allergic diarrhea.
# [8] = tested on: mouse bone marrow-derived mast cells (BMMCs); test: IL-13 production of IgE-sensitized BMMCs stimulated with TNP3-BSA and mHRF dimer; format: cell-based; details: IL-13 ELISA
# Experimental: (§4) FIGS. 33A-33B show HRF dimers enhance IgE/antigen-induced activation of mast cells and basophils. […] IL-13 in culture supernatants was quantified by ELISA. […] Then, HDM allergen (Dermatophagoides farinae at 10 ng/ml) was added to the cells together with FITC-anti-CD63 and APC-anti-CCR3 for 15 min. Expression of CD63 (activation marker) and CCR3 (basophil marker) was analyzed by flow cytometry.
# basophils = test: Basophil activation (CD63) in blood of an HDM-sensitized asthmatic; format: cell-based, human; details: 10 μg/ml, 30 min, then HDM allergen 10 ng/ml for 15 min
# Experimental: as §4
# [9] = cells from allergic (OVA-sensitized/OVA-challenged) mice
molecule,measurement,setting,value
IL-1β,secretion of HRF monomer,[1],increased
same,HRF secretion,[2],strongly induced
same,HRF secretion,[3],enhanced
same,HDM-induced HRF secretion,[4],enhanced
B1,levels of HRF-reactive IgE,[5]; before vs after OIT,lowered
same,levels of HRF-reactive IgG and OVA-specific IgG,[5]; before vs after OIT,not changed
same,levels of OVA-specific IgE,[5]; before vs after OIT,did not change
same,OVA-sensitized/OVA-challenged mice desensitized to the final gavage dose of 60 mg,[5]; hourly increasing amounts for 3 consecutive days,80%
same,activation (LAMP-1+) of mucosal mast cells by the substance,[6]; [9],further activated
same,activation (LAMP-1+) of mucosal mast cells by the substance,[6]; cells from non-sensitized mice,few mast cells were activated
same,OVA-induced development of allergic diarrhea,[7]; five daily oral administrations of 1 mg from day -11 to day -7,prevented
same,HRF-reactive IgE levels,[7]; tolerance-induced vs non-tolerant and non-sensitized mice,significantly reduced
B2,activation (LAMP-1+) of mucosal mast cells by the substance,[6]; [9],can activate
same,activation (LAMP-1+) of mucosal mast cells by the substance,"[6]; cells from allergic (OVA-sensitized/OVA-challenged) mice, listed as dimeric HRF",activated
same,IgE/antigen-induced activation of mast cells,[8],enhance
B3,IgE/antigen-induced activation of basophils (CD63),basophils,enhance
